Source: publication PMC5550728

Target: mouse Cav1.3 α1 subunit expressed in HEK cells (mouse) (UniProt Q99246)
Sequence (Q99246 whole entry): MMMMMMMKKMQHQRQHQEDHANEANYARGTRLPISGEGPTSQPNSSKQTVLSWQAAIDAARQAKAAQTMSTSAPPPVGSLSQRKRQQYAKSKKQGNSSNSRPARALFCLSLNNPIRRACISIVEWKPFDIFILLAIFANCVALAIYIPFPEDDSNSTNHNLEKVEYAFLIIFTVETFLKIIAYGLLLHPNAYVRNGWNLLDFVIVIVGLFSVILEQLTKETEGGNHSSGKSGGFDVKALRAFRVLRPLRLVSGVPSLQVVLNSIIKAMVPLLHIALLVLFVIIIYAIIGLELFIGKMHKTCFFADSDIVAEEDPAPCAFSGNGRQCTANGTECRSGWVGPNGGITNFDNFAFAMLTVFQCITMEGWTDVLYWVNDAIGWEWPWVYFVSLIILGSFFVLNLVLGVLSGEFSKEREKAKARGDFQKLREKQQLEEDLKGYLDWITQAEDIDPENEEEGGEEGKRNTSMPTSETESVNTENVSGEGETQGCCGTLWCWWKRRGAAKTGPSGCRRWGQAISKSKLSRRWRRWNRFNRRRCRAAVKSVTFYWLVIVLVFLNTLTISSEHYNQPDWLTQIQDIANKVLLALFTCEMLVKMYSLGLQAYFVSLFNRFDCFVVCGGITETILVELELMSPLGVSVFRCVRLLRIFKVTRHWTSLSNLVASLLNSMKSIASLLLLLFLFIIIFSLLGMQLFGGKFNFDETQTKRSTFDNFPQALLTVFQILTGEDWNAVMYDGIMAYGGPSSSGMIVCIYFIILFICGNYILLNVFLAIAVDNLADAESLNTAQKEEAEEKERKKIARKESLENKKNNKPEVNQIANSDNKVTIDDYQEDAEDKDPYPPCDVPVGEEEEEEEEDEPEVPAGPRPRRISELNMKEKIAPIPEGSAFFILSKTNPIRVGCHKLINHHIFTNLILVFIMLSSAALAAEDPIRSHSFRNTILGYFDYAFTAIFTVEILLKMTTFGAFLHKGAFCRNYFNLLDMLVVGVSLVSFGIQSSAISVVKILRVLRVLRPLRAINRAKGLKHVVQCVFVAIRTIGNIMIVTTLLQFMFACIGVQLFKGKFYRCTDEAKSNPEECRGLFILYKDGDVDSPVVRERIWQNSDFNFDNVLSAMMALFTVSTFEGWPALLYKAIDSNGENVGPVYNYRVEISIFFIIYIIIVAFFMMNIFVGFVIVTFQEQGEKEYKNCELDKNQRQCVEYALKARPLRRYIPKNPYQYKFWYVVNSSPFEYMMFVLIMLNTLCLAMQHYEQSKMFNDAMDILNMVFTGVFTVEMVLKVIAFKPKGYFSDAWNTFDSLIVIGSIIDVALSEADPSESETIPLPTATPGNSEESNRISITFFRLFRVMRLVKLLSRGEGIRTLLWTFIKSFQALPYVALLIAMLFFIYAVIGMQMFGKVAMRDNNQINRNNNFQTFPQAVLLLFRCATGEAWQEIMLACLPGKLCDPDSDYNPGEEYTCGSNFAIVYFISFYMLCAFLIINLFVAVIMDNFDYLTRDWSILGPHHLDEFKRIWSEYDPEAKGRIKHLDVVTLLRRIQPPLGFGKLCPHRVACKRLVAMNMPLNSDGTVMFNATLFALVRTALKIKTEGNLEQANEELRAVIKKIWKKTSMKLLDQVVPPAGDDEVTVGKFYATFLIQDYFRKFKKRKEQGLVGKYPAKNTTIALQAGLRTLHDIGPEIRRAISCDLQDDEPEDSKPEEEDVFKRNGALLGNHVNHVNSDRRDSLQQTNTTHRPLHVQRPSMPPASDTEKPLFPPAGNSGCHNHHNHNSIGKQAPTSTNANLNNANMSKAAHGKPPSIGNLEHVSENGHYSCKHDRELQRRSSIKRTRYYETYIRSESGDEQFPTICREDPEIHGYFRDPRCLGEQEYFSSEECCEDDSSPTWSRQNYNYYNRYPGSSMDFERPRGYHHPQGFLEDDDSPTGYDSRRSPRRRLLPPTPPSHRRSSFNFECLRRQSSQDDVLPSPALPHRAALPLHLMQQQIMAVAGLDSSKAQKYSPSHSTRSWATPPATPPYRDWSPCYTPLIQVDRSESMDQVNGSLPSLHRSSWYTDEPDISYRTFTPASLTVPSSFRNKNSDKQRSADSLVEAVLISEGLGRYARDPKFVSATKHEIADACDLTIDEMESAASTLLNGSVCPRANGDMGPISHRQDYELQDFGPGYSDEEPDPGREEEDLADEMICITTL

B1: human RS1 (wild type) expressed in HEK cells (natural protein)
chain: STEDEGEDPWYQKACKCDCQGGPNALWSAGATSLDCIPECPYHKPLGFESGEVTPDQITCSNPEQYVGWYSSWTANKARLNSQGFGCAWLSKFQDSSQWLQIDLKEIKVISGILTQGRCDIDEWMTKYSVQYRTDERLNWIYYKDQTGNNRVFYGNSDRTSTVQNLLRPPIISRFIRLIPLGWHVRIAIRMELLECVSKCA
shift of the current-membrane voltage relationship (voltage-dependent activation) of Cav1.3-LTCCs on co-transfection with RS1, HEK cells: -10 mV
